According to paper PMC11481497:

Target: His-CaDpb3 (Dpb3 subunit of DNA polymerase epsilon of C. albicans, wild type) (C. albicans)
Assay: ITC; 20 µM wild-type or mutant CaDpb3 in the sample cell, 100 µM CaDpb4 injected from the syringe (25 injections of 1.5 µL); 25°C; 20 mM HEPES pH 7.4, 150 mM NaCl; one-site binding model

Kd: 55 µM
stoichiometry N: 1
Substance: His-CaDpb4 (Dpb4 subunit of DNA polymerase epsilon of C. albicans, wild type) (from UniProt A0A1D8PG40 1-261) (natural protein)
